# Experimental data published in patent publication US20250154198A1, “PEPTIDE INHIBITORS OF INTERLEUKIN-23 RECEPTOR” (Zealand Pharma A/S, priority 2021, published 2025).
# *1 amine or outer side, *2 acyl side, *3 side chain or, on linkers, in order; H or OH if unused. Bridges are numbered along the chain shown (N, C = ends). Primed or numbered codes have the meaning given here. Where no end group is shown, it is not given here. [ ]: non-standard residue; d: D form. 4‑Aminomethyl‑phenylacetyl = 4-aminomethyl-phenylacetyl unit, its amine closes the lactam, O=C(Cc1ccc(CN[*:1])cc1)[*:2]; Q(pyrrolidin)″ = (2S)-2-amino-5-oxo-5-pyrrolidin-1-yl-pentanoic acid, O=C(CC[C@H](N[*:1])C(=O)[*:2])N1CCCC1; 1,3‑dibromopropan‑2‑one(3) = linker giving 1,3-dithio-propan-2-one bridge -SCH2C(=O)CH2S- between Cys; 4‑Aminomethyl‑phenylacetyl″ = N-terminal cap residue, O=C(Cc1ccc(CN[*:1])cc1)[*:2]; Ala(quinolin-3-yl) = N[C@@H](Cc1cnc2ccccc2c1)C(=O)O; Trp(7-F) = N[C@@H](Cc1c[nH]c2c(F)cccc12)C(=O)O; Phe(3,4-Me2) = Cc1ccc(C[C@H](N)C(=O)O)cc1C; 2Nal = N[C@@H](Cc1ccc2ccccc2c1)C(=O)O; AEF = NCCOc1ccc(C[C@H](N)C(=O)O)cc1; 3Pal = N[C@@H](Cc1cccnc1)C(=O)O; d3Pal = N[C@H](Cc1cccnc1)C(=O)O; αMeL = CC(C)C[C@](C)(N)C(=O)O; αMeV = CC(C)[C@](C)(N)C(=O)O; 3Amb = NCc1cccc(C(=O)O)c1; Dab = NCC[C@H](N)C(=O)O
# T1: human IL-23R endogenously expressed on DB cells (CRL-2289) (human, UniProt Q5VWK5 24-629)
# T1 sequence (looked up): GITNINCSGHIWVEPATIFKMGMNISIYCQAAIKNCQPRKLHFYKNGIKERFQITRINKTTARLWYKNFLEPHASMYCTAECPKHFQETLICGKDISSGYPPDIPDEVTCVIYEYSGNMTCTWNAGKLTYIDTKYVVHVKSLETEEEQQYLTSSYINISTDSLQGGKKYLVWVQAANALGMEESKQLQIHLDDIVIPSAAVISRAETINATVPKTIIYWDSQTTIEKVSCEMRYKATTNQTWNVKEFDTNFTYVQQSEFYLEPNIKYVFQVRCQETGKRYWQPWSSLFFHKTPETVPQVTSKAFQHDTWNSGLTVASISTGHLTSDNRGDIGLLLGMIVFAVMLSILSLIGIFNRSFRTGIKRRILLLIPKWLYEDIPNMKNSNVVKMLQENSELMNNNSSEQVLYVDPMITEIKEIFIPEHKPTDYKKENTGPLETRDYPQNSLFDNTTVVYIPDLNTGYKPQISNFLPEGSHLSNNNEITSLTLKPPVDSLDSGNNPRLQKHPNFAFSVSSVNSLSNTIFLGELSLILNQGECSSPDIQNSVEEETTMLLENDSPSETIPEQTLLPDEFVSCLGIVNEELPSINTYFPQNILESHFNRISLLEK
# B1: Compound 139 (peptide)
# peptide: [4‑Aminomethyl‑phenylacetyl]SE[Trp(7-F)]Q[Dab][AEF][2Nal][αMeL]E[Dab]-NH2
# modifications: lactam N-10, 3-6
# SMILES: CC(C)C[C@]1(C)NC(=O)[C@H](Cc2ccc3ccccc3c2)NC(=O)[C@H](Cc2ccc(OCCN)cc2)NC(=O)[C@@H]2CCNC(=O)CC[C@H](NC(=O)[C@H](CO)NC(=O)Cc3ccc(cc3)CNC(=O)CC[C@@H](C(=O)N[C@@H](CCN)C(N)=O)NC1=O)C(=O)N[C@@H](Cc1c[nH]c3c(F)cccc13)C(=O)N[C@@H](CCC(N)=O)C(=O)N2
# B2: Compound 158 (peptide)
# peptide: [4‑Aminomethyl‑phenylacetyl]IEWQ[Dab][AEF][Phe(3,4-Me2)][αMeV]EG[3Pal]-NH2
# modifications: lactam (positions not given here); lactam 3-6; not fully specified (bridges); printed as [4-Aminomethyl-phenylacetyl](1c)*IE(2c)WQ[Dab](2c)[Y(2-aminoethoxy)][F(3,4-Me)][2-Me-Val]E(1c)G[3-(3-Pyridyl)-Ala]-[NH2]
# B3: Ref 2 (peptide)
# peptide: DESSWQSWWLKR
# HELM: PEPTIDE1{D.E.S.S.W.Q.S.W.W.L.K.R.[am]}$PEPTIDE1,PEPTIDE1,2:R3-11:R3$$$V2.0
# SMILES: CC(C)C[C@@H]1NC(=O)[C@H](Cc2c[nH]c3ccccc23)NC(=O)[C@H](Cc2c[nH]c3ccccc23)NC(=O)[C@H](CO)NC(=O)[C@H](CCC(N)=O)NC(=O)[C@H](Cc2c[nH]c3ccccc23)NC(=O)[C@H](CO)NC(=O)[C@H](CO)NC(=O)[C@@H](NC(=O)[C@@H](N)CC(=O)O)CCC(=O)NCCCC[C@@H](C(=O)N[C@@H](CCCNC(=N)N)C(N)=O)NC1=O
# B4: Compound 149 (peptide)
# peptide: [3Amb]SCWQC[AEF][2Nal][αMeL]ER[Ala(quinolin-3-yl)]-NH2
# modifications: lactam (positions not given here); linker 3-6 via 1,3‑dibromopropan‑2‑one(3); not fully specified (bridges); printed as [(3-Aminomethyl)benzoyl](1c)*SC(2a)WQC(2a)][Y(2-aminoethoxy)][2-Nal][2-Me-Leu]E(1c)R[3-(3-Quinolinyl)-Ala]-[NH2]
# B5: Compound 148 (peptide)
# peptide: [3Amb]SCWQC[AEF][2Nal][αMeL]E[Dab][3Pal]-NH2
# modifications: lactam (positions not given here); linker 3-6 via 1,3‑dibromopropan‑2‑one(3); not fully specified (bridges); printed as [(3-Aminomethyl)benzoyl](1c)*SC(2a)WQC(2a)[Y(2-aminoethoxy)][2-Nal][2-Me-Leu]E(1c)[Dab][3-(3-Pyridyl)-Ala]-[NH2]
# B6: Compound 9 (peptide)
# peptide: DESCWQCWWLXR
# HELM: PEPTIDE1{D.E.S.C.W.Q.C.W.W.L.[Dab].R.[am]}|CHEM1{[O=C(C[*:1])C[*:2]]}$PEPTIDE1,PEPTIDE1,2:R3-11:R3|PEPTIDE1,CHEM1,4:R3-1:R1|PEPTIDE1,CHEM1,7:R3-1:R2$$$V2.0
# SMILES: CC(C)C[C@@H]1NC(=O)[C@H](Cc2c[nH]c3ccccc23)NC(=O)[C@H](Cc2c[nH]c3ccccc23)NC(=O)[C@@H]2CSCC(=O)CSC[C@H](NC(=O)[C@H](CO)NC(=O)[C@@H](NC(=O)[C@@H](N)CC(=O)O)CCC(=O)NCC[C@@H](C(=O)N[C@@H](CCCNC(=N)N)C(N)=O)NC1=O)C(=O)N[C@@H](Cc1c[nH]c3ccccc13)C(=O)N[C@@H](CCC(N)=O)C(=O)N2
# B7: Compound 150 (peptide)
# peptide: [3Amb]SCWQC[AEF][2Nal][αMeL]ER[d3Pal]-NH2
# modifications: lactam (positions not given here); linker 3-6 via 1,3‑dibromopropan‑2‑one(3); not fully specified (bridges); printed as [(3-Aminomethyl)benzoyl](1c)*SC(2a)WQC(2a)][Y(2-aminoethoxy)][2-Nal][2-Me-Leu]E(1c)R[{d}[3-(3-Pyridyl)-Ala]]-[NH2]
# B8: Compound 145 (peptide)
# peptide: [4‑Aminomethyl‑phenylacetyl][Q(pyrrolidin)″]EWQ[Dab][AEF][2Nal][αMeL]E[Dab]-NH2
# modifications: lactam N-10, 3-6
# SMILES: CC(C)C[C@]1(C)NC(=O)[C@H](Cc2ccc3ccccc3c2)NC(=O)[C@H](Cc2ccc(OCCN)cc2)NC(=O)[C@@H]2CCNC(=O)CC[C@H](NC(=O)[C@H](CCC(=O)N3CCCC3)NC(=O)Cc3ccc(cc3)CNC(=O)CC[C@@H](C(=O)N[C@@H](CCN)C(N)=O)NC1=O)C(=O)N[C@@H](Cc1c[nH]c3ccccc13)C(=O)N[C@@H](CCC(N)=O)C(=O)N2
# B9: Compound 146 (peptide)
# peptide: [4‑Aminomethyl‑phenylacetyl]SEW[Q(pyrrolidin)″][Dab][AEF][2Nal][αMeL]E[Dab]-NH2
# modifications: lactam N-10, 3-6
# SMILES: CC(C)C[C@]1(C)NC(=O)[C@H](Cc2ccc3ccccc3c2)NC(=O)[C@H](Cc2ccc(OCCN)cc2)NC(=O)[C@@H]2CCNC(=O)CC[C@H](NC(=O)[C@H](CO)NC(=O)Cc3ccc(cc3)CNC(=O)CC[C@@H](C(=O)N[C@@H](CCN)C(N)=O)NC1=O)C(=O)N[C@@H](Cc1c[nH]c3ccccc13)C(=O)N[C@@H](CCC(=O)N1CCCC1)C(=O)N2
# B10: Compound 151 (peptide)
# peptide: [3Amb]SCWQC[AEF][2Nal][αMeL]ER[3‑Amino‑3‑(3'-pyridyl)propionyl]-NH2
# modifications: lactam (positions not given here); linker 3-6 via 1,3‑dibromopropan‑2‑one(3); not fully specified (bridges); printed as [(3-Aminomethyl)benzoyl](1c)*SC(2a)WQC(2a)][Y(2-aminoethoxy)][2-Nal][2-Me-Leu]E(1c)R[3-Amino-3-(3′-pyridyl)propionyl]-[NH2]
# B11: Compound 157 (peptide)
# peptide: [4‑Aminomethyl‑phenylacetyl]IEWQ[Dab][AEF][2Nal][αMeV]E[Dab][3Pal]-NH2
# modifications: lactam (positions not given here); lactam 3-6; not fully specified (bridges); printed as [4-Aminomethyl-phenylacetyl](1c)*IE(2c)WQ[Dab](2c)[Y(2-aminoethoxy)][2-Nal][2-Me-Val]E(1c)[Dab][3-(3-Pyridyl)-Ala]-[NH2]
# Biological target: T1, human IL-23R endogenously expressed on …
# Test: cell-based or functional assay
row,IC50 (pSTAT3),Binder
1,0.0857 nM,[3Amb]IEWQ[Dab][AEF][2Nal][αMeV]E[Dab][3Pal]-NH2 (lactam (positions not given here); lactam 3-6; not fully specified (bridges)) [Compound 156]
2,30.2 nM,B1
3,0.635 nM,B2
4,> 1 µM,B3
5,4.82 nM,B4
6,0.0868 nM,B5
7,> 1 µM,B6
8,14.3 nM,B7
9,22.7 nM,B8
10,41.5 nM,B9
11,0.0858 nM,"[4‑Aminomethyl‑phenylacetyl″]SCWQC[AEF][2Nal][αMeL]ER[3Pal]-NH2 (lactam N-10; linker 3-6 via 1,3‑dibromopropan‑2‑one(3)) [Compound 147]"
12,10.7 nM,B10
13,0.0318 nM,B11
